Source: patent US20110165081A1 (published 2011)

Biological target: T1, recombinant soluble PSMA (rsPSMA) (human, UniProt Q04609 44-750)
T1 construct: Oligomeric state not specified for the assay; also called secreted rsPSMA; PSMAECTO
Test: Biacore SPR, mAb captured by anti-human IgG, rsPSMA in flow
Method: It is ideal for screening crude supernatants.
The entire sensor chip surface was conditioned with five injections of conditioning solution (1 M NaCl, 50 mM NaOH) and equilibrated with PBS buffer containing 0.005% polysorbate 20. Two to three thousand resonance units (RU) of biotinylated anti-human IgG antibody (Sigma) were immobilized onto the SA chip followed by an injection of regeneration buffer (glycine-HCl, pH 2.2). […] For each antibody at one concentration, the chip was regenerated and equilibrated.

T1 sequence (Q04609 44-750): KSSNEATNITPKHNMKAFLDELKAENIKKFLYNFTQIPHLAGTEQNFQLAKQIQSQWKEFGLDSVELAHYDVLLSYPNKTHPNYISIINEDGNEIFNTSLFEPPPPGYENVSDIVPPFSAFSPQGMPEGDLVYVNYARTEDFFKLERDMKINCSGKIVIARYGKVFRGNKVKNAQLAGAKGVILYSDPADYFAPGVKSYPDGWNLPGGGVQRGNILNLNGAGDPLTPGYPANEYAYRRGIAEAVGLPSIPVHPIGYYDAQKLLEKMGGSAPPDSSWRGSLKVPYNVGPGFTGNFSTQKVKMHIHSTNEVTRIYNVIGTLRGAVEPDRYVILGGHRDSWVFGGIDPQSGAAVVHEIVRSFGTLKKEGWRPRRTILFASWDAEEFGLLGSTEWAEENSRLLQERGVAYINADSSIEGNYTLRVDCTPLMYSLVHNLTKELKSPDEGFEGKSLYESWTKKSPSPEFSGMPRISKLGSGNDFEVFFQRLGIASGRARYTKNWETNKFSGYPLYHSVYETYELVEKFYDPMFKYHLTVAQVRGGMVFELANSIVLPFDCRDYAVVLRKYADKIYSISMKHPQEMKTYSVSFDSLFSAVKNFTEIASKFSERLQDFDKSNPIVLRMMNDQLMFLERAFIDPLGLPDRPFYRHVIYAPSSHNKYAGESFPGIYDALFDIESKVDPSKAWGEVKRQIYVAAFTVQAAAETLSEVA

B1: PSMA 10.3 (antibody, V domains shown)
VH: QEQLVESGGGVVQPGRSLRLSCAASGFTFSTYGMHWVRQAPGKGLEWVAVTWHDGSNKYYADSVKGRFTISRDNSKNTLYLQMNSLRAEDTAVYYCARGGVGATYYYYYGMDVWGQGTTVTVSS
VL: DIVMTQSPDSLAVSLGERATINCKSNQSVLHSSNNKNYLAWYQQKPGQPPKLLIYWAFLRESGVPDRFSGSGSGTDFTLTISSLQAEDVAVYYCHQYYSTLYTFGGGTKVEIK
Kd: 0.193 nM
